The source of these data is US8008547B2, “Glyphosate-N-acetyltransferase (GAT) genes” (E.I. duPont de Nemours, priority 2000, dated 2011).

Residue numbers refer to the chain shown, from its start.

The nature of this data set: Standard protocol for determination of kcat and KM (continuous spectrophotometric assay, Acetyl CoA hydrolysis at 235 nm). In kind it is biochemical. To be noted: purified protein, about 23° C., 0.2 mM acetyl CoA; for Kcat: 20 mM HEPES pH 6.8, 10% ethylene glycol; for Km: pH 6.8, glyphosate 0.125 to 10 mM. The essentials: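 KM from initial rates over 0.125–10 mM glyphosate, fitted by Lineweaver-Burke transformation of Michaelis-Menten; kcat/KM computed as kcat divided by KM. Continuous spectrophotometric read of acetyl-CoA hydrolysis at 235 nm.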

B1: SEQ ID NO: 479: GAT polypeptide (protein)
chain: MIEVKPINAEDTYELRHRILRPNQPIEACMYETDLLRGAFHLGGYYRGQLISIASFHKAEHSELQGQKQYQLRGMATLEGYREQKAGSTLIKHAEQLLREKGADMLWCNARTSAAGYYKRLGFSEQGEVFDTPPVGPHILMYKKLT
modifications: 1_3H2
notes: GAT polypeptide
With B1, the Kcat is 2.13 s⁻¹ and the Km amounted to 700 µM.

B2: SEQ ID NO: 484: GAT polypeptide (protein)
chain: MIEVKPINAEETYELRHRILRPNQPIEACMYESDLLRGSFHLGGFYRGKLISIASFHQAEHSDLEGQKQYQLRGMATLEGYRDQKAGSTLIKHAEELLRKRGADMLWCNARTSAAGYYKRLGFSEHGEIYETPPVGPHILMYKKIT
modifications: 1_6F12
notes: GAT polypeptide
With B2, the Kcat worked out at 3.48 s⁻¹ and the Km is 14700 µM.

B3: SEQ ID NO: 480: GAT polypeptide (protein)
chain: MIEVKPINAEDTYELRHKILRPNQPIEACMYESDLLRGSFHLGGFYRGKLISIASFHKAEHSDLEGQNQYQLRGMATLEGYREQKAGSTLIRHAEEILRKRGADMLWCNARTSASGYYKRLGFSEHGEIFDTPPVGPHILMYKRLT
modifications: 1_4C5
notes: GAT polypeptide
Turning to B3, the Kcat worked out at 4.23 s⁻¹ and the Km worked out at 930 µM.

B4: SEQ ID NO: 482: GAT polypeptide (protein)
chain: B3 chain with K18R, I26L, S33T, K58Q, E65Q, N68K, E96Q, I97L, M105L, I129V
modifications: 1_4H1
notes: GAT polypeptide
For the molecule B4, the Kcat turned out to be 3.93 s⁻¹ and the Km was determined as 1200 µM.

B5: SEQ ID NO: 481: GAT polypeptide (protein)
chain: B3 chain with I2L, K18R, S33T, K49Q, N68K, E96Q, S115A, H126Q, I129V, D131E
modifications: 1_4D6
notes: GAT polypeptide
On to B5, for which the Kcat was found to be 2.28 s⁻¹ and the Km was found to be 1400 µM.

B6: SEQ ID NO: 278: GAT polypeptide (protein)
chain: MIEVKPINAEDTYEIRHRILRPNQPLEACKYETDLLRGAFHLGGYYRGKLISIASFHQAEHPELEGQKQYQLRGMATLEGYREQKAGSTLIRHAEELLRKKGADLLWCNARTSASGYYKKLGFSEQGEVYDTPPVGPHILMYKKLT
modifications: 10_2C7
notes: GAT polypeptide
Take B6: the Kcat was determined as 2.25 s⁻¹ and the Km came to 1400 µM.

B7: SEQ ID NO: 279: GAT polypeptide (protein)
chain: B6 chain with R37G, A39T, I51V, T132I, V135T
modifications: 10_3G5
notes: GAT polypeptide
Turning to B7, the Kcat worked out at 1.46 s⁻¹ and the Km turned out to be 2000 µM.

B8: SEQ ID NO: 280: GAT polypeptide (protein)
chain: B6 chain with K30M, R37G, A39T, I51V, T132I, V135T
modifications: 10_4H7
notes: GAT polypeptide
With B8, the Kcat came to 1.87 s⁻¹ and the Km was found to be 1700 µM.

B9: SEQ ID NO: 495: GAT polypeptide (protein)
chain: MLXVKPINAEDTYELRHKILRPNQPXEVCMYEXDLLRGAFHLGGFYRGKLISIASFHQAEHSDLQGQKQYQLRGMATLEGYRDQKAGSSLIKHAEQILRERGADMLWCNARTSASGYYKKLGFSEQGEVFDTPPVGPHILMYKRLT
modifications: X: residue not identified in the source; ends and bridges not checked
notes: GAT polypeptide
Consider B9, for which the Kcat stood at 1.257 s⁻¹.

B10: SEQ ID NO: 477: GAT polypeptide (protein)
chain: MIEVKPINAEDTYELRHKILRPNQPIEACMYESDLLQGSFHLGGFYRGQLISIASFHQAEHSDLQGQKQYQLRGMATLEGFREQKAGSTLIKHAEEILRKKGADLLWCNARTSAAGYYKKLGFSEHGEIFDTPPAGPHILMYKKLT
modifications: 1_3D6
notes: GAT polypeptide
Regarding B10, the Kcat worked out at 3.77 s⁻¹ and the Km stood at 3500 µM.

B11: SEQ ID NO: 485: GAT polypeptide (protein)
chain: B2 chain with E11D, R18K, K49Q, T89S, L97I, M105L, H126Q, Y130F, E131D
modifications: 1_6H6
notes: GAT polypeptide
For B11, the Kcat worked out at 4.57 s⁻¹ and the Km came to 1050 µM.

B12: SEQ ID NO: 478: GAT polypeptide (protein)
chain: B10 chain with D11E, H17Q, K18R, Q37R, D63E, F81Y, K120R, A135V, K144R, L145I
modifications: 1_3F3
notes: GAT polypeptide
Take B12: the Kcat is 2.78 s⁻¹ and the Km stood at 1500 µM.

B13: SEQ ID NO: 483: GAT polypeptide (protein)
chain: MLEVKPINAEETYELRHKILRPNQPLEACMYESDLLRGSFHLGGYYRGQLISIASFHQAEHSELEGQKQYQLRGMATLEGFREQKAGSTLIKHAEQILRKRGADMLWCNARTSAAGYYKKLGFSEHGEIFDTPPVGPHILMYKKLT
modifications: 1_5H5
notes: GAT polypeptide
For B13, the Kcat stood at 3.57 s⁻¹ and the Km turned out to be 510 µM.

B14: SEQ ID NO: 493: GAT polypeptide (protein)
chain: MIEVKPINAEDTYELRHRILRPNQPIEVCMYETDLLRGAFHLGGFYGGKLISIASFHQAEHSDLQGQKQYQLRGMATLEGYRDQKAGSSLIRHAEQILRKRGADMLWCNARTSASGYYKKLGFSEQGEIFETPPVGPHILMYKRIT
modifications: 4_1B10
notes: GAT polypeptide
B14 registered a Kcat of 1.285 s⁻¹.

B15: SEQ ID NO: 501: GAT polypeptide (protein)
chain: B14 chain with I2L, R18K, I26L, Q96E, I129V, E131D, R144K
modifications: 6_1H10
notes: GAT polypeptide
Molecule B15 came in with a Kcat of 0.2835 s⁻¹.

B16: SEQ ID NO: 494: GAT polypeptide (protein)
chain: B14 chain with I26L
modifications: 5_2B3
notes: GAT polypeptide
In the case of B16, the Kcat is 0.9458 s⁻¹.

B17: SEQ ID NO: 498: GAT polypeptide (protein)
chain: B14 chain with R18K, I26L, G47R, I129V
modifications: 6_1D5
notes: GAT polypeptide
As to B17, the Kcat came out at 0.7153 s⁻¹.

B18: SEQ ID NO: 496: GAT polypeptide (protein)
chain: B14 chain with I2L, R18K, I145L
modifications: 5_2F10
notes: GAT polypeptide
The molecule B18 returned a Kcat of 0.912 s⁻¹.

B19: SEQ ID NO: 497: GAT polypeptide (protein)
chain: B14 chain with I2L, R18K, I26L, G47R, K119R, I129V, I145L
modifications: 6_1A11
notes: GAT polypeptide
In the case of B19, the Kcat was found to be 0.759 s⁻¹.

B20: SEQ ID NO: 499: GAT polypeptide (protein)
chain: B14 chain with R18K, I26L, G47R, D83E, I129V, I145L
modifications: 6_1F11
notes: GAT polypeptide
Consider B20, for which the Kcat turned out to be 1.7627 s⁻¹.

B21: SEQ ID NO: 502: GAT polypeptide (protein)
chain: B14 chain with I2L, R18K, I26L, S89T, R92K, I129V, I145L
modifications: 6_1H4
notes: GAT polypeptide
Take B21: the Kcat is 1.432 s⁻¹.

B22: SEQ ID NO: 500: GAT polypeptide (protein)
chain: B14 chain with I2L, R18K, I26L, G47R, D63E, I129V, I145L
modifications: 6_1F1
notes: GAT polypeptide
On to B22, for which the Kcat came out at 1.164 s⁻¹.

B23: SEQ ID NO: 486: GAT polypeptide (protein)
chain: MLEVKPINAEDTYELRHRILRPNQPIEACMYESDLLRGAFHLGGYYRGKLISIASFHQAEHSELQGQKQYQLRGMATLEGYREQKAGSSLVKHAEEILRKRGADLLWCNARTSASGYYKKLGFSEQGEIFETPPVGPHILMYKRIT
modifications: 3_11A10
notes: GAT polypeptide
Consider B23, for which the Kcat turned out to be 2.2568 s⁻¹ and the Km is 170 µM.

B24: SEQ ID NO: 491: GAT polypeptide (protein)
chain: B23 chain with R47G, E63D, V91I
modifications: 3_7F9
notes: GAT polypeptide
With B24, the Kcat came to 3.2258 s⁻¹ and the Km was determined as 290 µM.

B25: SEQ ID NO: 489: GAT polypeptide (protein)
chain: B23 chain with L2I, V91I
modifications: 3_6A10
notes: GAT polypeptide
For B25, the Kcat is 2.108 s⁻¹ and the Km was 660 µM.

B26: SEQ ID NO: 488: GAT polypeptide (protein)
chain: B23 chain with R18K, I26L, A28V, S33T, R47G, V91I
modifications: 3_15B2
notes: GAT polypeptide
B26: the Kcat turned out to be 1.7355 s⁻¹.

B27: SEQ ID NO: 487: GAT polypeptide (protein)
chain: B23 chain with Y45F, V91I, I145L
modifications: 3_14F6
notes: GAT polypeptide
On to B27, for which the Kcat came out at 3.1405 s⁻¹ and the Km came out at 250 µM.

B28: SEQ ID NO: 492: GAT polypeptide (protein)
chain: B23 chain with A28V, V91I
modifications: 3_8G11
notes: GAT polypeptide
As to B28, the Kcat turned out to be 1.652 s⁻¹.

B29: SEQ ID NO: 490: GAT polypeptide (protein)
chain: B23 chain with S62P, V91I, I129V
modifications: 3_6B1
notes: GAT polypeptide
For B29, the Kcat was 4.3847 s⁻¹ and the Km worked out at 430 µM.

B30: SEQ ID NO: 503: GAT polypeptide (protein)
chain: B14 chain with I26L, G47R, D83E, R92K, Q96E, M105L, E131D
modifications: 8_1F8
notes: GAT polypeptide
B30 returned a Kcat of 1.381 s⁻¹.
